Positions count from the first letter of the chain named.

The labels stand for the following.
T1: human IL-4 (human, UniProt P05112 25-153, biotinylated in the receptor binding assay and on the Biacore chip)
T1 construct: also called interleukin-4; biotinylated IL-4
T1 sequence (looked up): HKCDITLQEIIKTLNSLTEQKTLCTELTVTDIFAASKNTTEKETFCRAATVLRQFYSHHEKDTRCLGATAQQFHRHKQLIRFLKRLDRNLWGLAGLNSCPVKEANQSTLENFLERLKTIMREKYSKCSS

B1: DOM9-112-210-ASTKGPS-DOM10-236 (bispecific antibody)
chain: EVQLLESGGGLVQPGGSLRLSCAASGFTFRNFGMGWVRQAPGKGLEWVSWIISSGTETYYADSVKGRFTISRDNSKNTLYLQMNSLRAEDTAVYYCAKSLGRFDYWGQGTLVTVSSASTKGPSEVQLLESGGGLVQPGGSLRLSCAASGFTFPKYDMMWVRQAPGKGLEWVSSIDHLGVNTYYADSVKGRFTISRDNSKNTLYLQMNSLRAEDTAVYYCAKESDWPSFDYWGQGTLVTVSS
notes: in-line fusion, from pDOM5
B2: DOM9-112-210-ASTKGPS-DOM10-275 (bispecific antibody)
chain: EVQLLESGGGLVQPGGSLRLSCAASGFTFRNFGMGWVRQAPGKGLEWVSWIISSGTETYYADSVKGRFTISRDNSKNTLYLQMNSLRAEDTAVYYCAKSLGRFDYWGQGTLVTVSSASTKGPSEVQLLESGGGLVQPGGSLRLSCAASGFTFDREEMDWVRQAPGKGLEWVSTISPSGRKTYYADSVKGRFTISRDNSKNTLYLQMNSLRAEDTAVYYCAKHGTGFDYWGQGTLVTVSS
notes: in-line fusion, from pDOM5
B3: DOM9-112-210-ASTKGPS-DOM10-276 (bispecific antibody)
chain: B2 chain with D153R, R154D, E155Y, T173S, S175G, R179S, K180E, H222A, G223Y, G225S
notes: in-line fusion, from pDOM5
B4: DOM10-224-TVAAPS-DOM9-155-78 (bispecific antibody)
chain: DIQMTQSPSSLSASVGDRVTITCRASPNIAVDLAWYQQKPGKAPKLLIRGVSRLQSGVPSRFSGSGSGTDFTLTISSLQPEDFATYYCRQGAMGSYTFGQGTKVEIKRTVAAPSDIQMTQSPSSLSASVGDRVTITCRASRHIGDWLHWYQQKPGKAPKLLIAWASTLDSGVPSRFSGSGSGTDFTLTISSLQPEDFATYYCLQEGWGPPTFGQGTKVEIKR
notes: in-line fusion, from pDOM5
B5: DOM9-112-210-ASTKGPS-DOM10-208 (bispecific antibody)
chain: EVQLLESGGGLVQPGGSLRLSCAASGFTFRNFGMGWVRQAPGKGLEWVSWIISSGTETYYADSVKGRFTISRDNSKNTLYLQMNSLRAEDTAVYYCAKSLGRFDYWGQGTLVTVSSASTKGPSDIQMTQSPSSLSASVGDRVTITCRASSPITDGLAWYQQKPGKAPKLLIDTGSRLQSGVPSRFSGSGSGTDFTLTISSLQPEDFATYYCRQGAMGSYTFGQGTKVEIKR
notes: in-line fusion, from pDOM5
B6: DOM9-112-210-ASTKGPS-DOM10-215 (bispecific antibody)
chain: EVQLLESGGGLVQPGGSLRLSCAASGFTFRNFGMGWVRQAPGKGLEWVSWIISSGTETYYADSVKGRFTISRDNSKNTLYLQMNSLRAEDTAVYYCAKSLGRFDYWGQGTLVTVSSASTKGPSDIQMTQSPSSLSASVGDRVTITCRASQNIFADLNWYQQKPGKAPKLLIYMGSRLQSGVPSRFSGSGSGTDFTLTISSLQPEDFATYYCQQDYKFPLTFGQGTKVEIKR
notes: in-line fusion, from pDOM5
B7: DOM10-212-TVAAPS-DOM9-155-78 (bispecific antibody)
chain: DIQMTQSPSSLSASVGDRVTITCRASSVILNELHWYQQKPGKAPKLLISAVSRLQSGVPSRFSGSGSGTDFTLTISSLQPEDFATYYCLQTFWGPFTFGQGTKVEIKRTVAAPSDIQMTQSPSSLSASVGDRVTITCRASRHIGDWLHWYQQKPGKAPKLLIAWASTLDSGVPSRFSGSGSGTDFTLTISSLQPEDFATYYCLQEGWGPPTFGQGTKVEIKR
notes: in-line fusion, from pDOM5
B8: DOM9-112 (other)
VH: EVQLLESGGGLVQPGGSLRLSCAASGFTFRNYGMAWVRQAPGKGLEWVSWIDASGTETYYADSVKGRFTISRDNSKNTLYLQMNSLRAEDTAVYYCAKSLGRFDYWGQGTLVTVSS
notes: VH dAb
B9: DOM9-155 (other)
VL: DIQMTQSPSSLSASVGDRVTITCRASLDIGDWLHWYQQKPGKAPKLLIGWGSGLQSGVPSRFSGSGSGTDFTLTISSLQPEDFATYYCLQEGLGPPTFGQGTKVEIKR
notes: Vk dAb

T2 sequence (P35225 35-146 limits assumed): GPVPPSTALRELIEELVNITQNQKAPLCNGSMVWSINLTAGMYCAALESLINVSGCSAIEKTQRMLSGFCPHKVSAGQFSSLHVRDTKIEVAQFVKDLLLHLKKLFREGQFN

One test has as its target T2, human IL-13 (human, UniProt P35225 35-146, biotinylated on the Biacore chip).
T2 construct: also called hIL-13; recombinant human IL-13
Description: IL-13 Biacore.
Turning to B1, the binding result is listed as “binds”. For the molecule B2, the binding result is “binds”.

Consider B3, for which the binding result was “binds”. Still for that read-out and setting: next, B4: “binds”; B5: “binds”; B6: “binds”.

With B7, the binding result is “binds”.

In a further test the target is T1, human IL-4. Description: DOM9 RBA (IL-4 RBA). The text has this:
(§1) The wells were washed three times with 0.1% (v/v) Tween 20 in PBS, followed by three washes with PBS, before blocking with 2% (w/v) BSA in PBS. […] The reaction was stopped by the addition of HCl and the absorbance read at 450 nm.
B2 gave an IC50 of 10.9 nM. In turn, B3 gave an IC50 of 10.2 nM. The same measure, in the same setting: next, B4: 12.5 nM; B8: 3.6 nM. The molecule B5 returned a 50% inhibitory concentration (IC50) of 2.48 nM.

B6: the 50% inhibitory concentration (IC50) came to 14.2 nM.

For another test, the target named is T1, human IL-4. Description: IL-4 RBA: ELISA, IL-4R/Fc coated, biotinylated IL-4.
Excerpt: as §1
The molecule B8 returned an IC50 of 3 nM.

In turn, B9 displayed an IC50 of 100 nM.

The values are drawn from patent US20090060916A1 (published 2009).
